B1: NP_002788.1 (parent)
chain: DGWIRVSSDNVADLHEKYSGSTP
B2: USP39 (parent)
chain: FVEKNPTIVNFPITNVDLREYLSE

Variants of: B1
Test: protein stability index of a GFP-peptide fusion (GPS, HEK-293T) (PSI 1-6); higher = more stable
Conditions: c terminus: native

Protein stability index, by site and new letter:
S21: V 1.83; Y 2.26; R 2.16; T 2.19; W 3.02
T22: H 3.06; K 4.96; D 2.98; F 2.12; P 4.85; L 2.28; I 2.31; G 2.58; C 2.36; M 2; Y 2.63; N 4.05; S 3.1; V 2.46; W 2.81; A 3.29; E 2.64; R 3.98; Q 2.78
P23: F 4.29; H 4.63; A 4.55; Q 4.78; Y 4.27; E 5.11; G 4.43; N 4.71; S 5; R 3.78; T 4.51; L 3.93; C 4.56; I 3.13; V 4.02; M 3.41; D 5.08; K 5.05; W 3.31

Variants of: B2
Test: as above
Conditions: c terminus: a fixed tail appended

Protein stability index, by site and new letter:
V2: I 2.3; A 2.75; H 2.94; F 2.74; L 2.43; K 3.26; S 3.02; P 2.96; N 3.68; C 2.94; R 3.84; W 2.81; D 3.79; T 3.2; E 3.88; G 3.51; Q 2.81; M 3.36; Y 2.62
V9: Y 3.09; S 1.8; E 2.91; I 2.23; A 2.66; R 2.16; C 1.5; L 1.63; N 1.98; P 1.89; K 2.38; G 2.03; T 2.36; F 1.73; H 1.8; Q 2.03; M 1.63; D 2.27
I13: L 1.67; F 2.08; D 2.17; A 2.23; G 1.71; C 1.77; M 2.6; Q 2.22; N 2.42; H 1.81; V 2.03; E 2.4; T 1.36; S 2.59; R 1.98; Y 1.73; P 1.91; K 2.25
P6: S 3; G 1.95; H 1.92; A 3.96; E 2.21; M 2.47; N 2.1; C 2.45; Y 2.82; R 2.13; I 2.61; T 2.21; V 2.38; D 2.39; K 2.76; Q 1.98; F 2.6; L 1.19
P12: C 1.48; H 1.47; R 2.74; E 1.66; A 2.06; M 3.23; G 2.21; I 2.38; S 1.34; W 2.96; N 2.3; Q 1.74; K 1.56; F 3.66; T 2.28; V 2.28
D17: I 3.11; A 2.46; C 2.08; F 2.63; K 1.11; E 1.95; G 2.02; H 2.25
N15: Q 2.13; D 1.56; P 1.45; Y 2.3; T 1.43; V 2.27; C 1.77; R 2.21; K 2.13; G 1.37; I 2.26; M 2.12; L 2.05; H 1.44; S 1.18; A 1.52
T7: Y 3.42; R 1.98; P 1.55; A 1.8; Q 1.81; N 2.39; D 2.15; K 1.74; L 2.02; S 1.5; F 1.8; E 2; H 1.69
F11: P 2; A 1.85; T 2.02; G 2.13; W 1.23; V 1.82; H 2; L 1.88; E 3.01; C 2.01; M 1.78; Q 2.09; N 2.22; Y 3.36; S 1.77; K 2.05; D 2.82; R 2.02; I 2.42
N10: I 3.79; T 1.77; K 2.48; Q 2.3; A 2.02; P 2.42; V 2.29; F 1.57; R 1.8; S 1.76; D 2.14; L 3.29; W 2.08; E 1.99; G 2.93; H 1.75
E3: K 1.94; N 1.85; T 1.15; Y 2.21; V 2.25; C 1.52; A 1.49; G 1.66; P 2.41; S 3.64; I 1.85; F 2.57; H 1.83; R 1.38; Q 1.58; L 1.27; D 1.95; W 1.55
T14: V 2.08; I 3.46; P 1.54; A 1.74; H 2.09; F 1.98; Q 1.81; L 1.86; G 1.82; M 1.57; R 2.78; N 2.67; E 1.43; C 1.72; K 1.73; S 2.08; W 3.7; D 2.65; Y 1.97
I8: Q 2.54; N 2.1; W 2.96; A 1.82; D 2.77; T 3.34; K 2.04; R 2.56; P 2.76; E 2.67; S 2.89; C 2.02; F 2.25; V 1.89; M 1.25; Y 1.55; G 1.91; H 2.12; L 2.81
F1: K 4.34; Q 3.71; E 4.26; V 3.89; C 2.87; I 3.4; Y 1.99; T 3.87; S 4.11; W 2.49; G 3.26; N 4.08; M 3.36; H 4.01; L 3.95; D 4.5; R 3.78; P 3.85; A 3.59
N5: V 2.05; A 1.35; G 1.51; R 1.94; T 2.37; I 1.58; S 2.08; M 2.15; C 1.44; Y 2.83; L 2.63; E 1.91; Q 2.55; D 2.74; P 1.67; K 2.74; H 1.96
K4: I 1.07; L 2.45; M 1.54; T 2.29; P 1.61; A 1.74; V 1.81; F 1.14; C 1.42; Q 2.61; G 2.11; Y 2.32; H 2.03; E 2.47; D 2.85; W 1.24; S 2.52; N 2.05; R 1.9
V16: D 1.89; H 1.49; S 1.82; M 2.37; K 1.74; C 1.41; L 2.05; Q 1.99; T 2.94; Y 1.62; W 1.52; E 2.04; I 1.6; G 1.89; A 2.02; P 2.29; N 1.49; R 2.78; F 1.8
